Data on five molecules can be found in EP4653461A1 (DE NOVO BIOTHERAPEUTICS CO., LTD., dated 2025).

In experiment [1] the target is T1, 6506GJ130-1A: Human NKP46 Recombinant Protein (His) (human, UniProt O76036 22-258, limits assumed).
T1 construct: also called human NKp46 protein; not shown: His tag
Description: SPR, Biacore 8K, antibody captured on Protein A chip, NKp46 as analyte.

Experiment [2] addresses T1, 6506GJ130-1A: Human NKP46 Recombinant …. Description: SPR, Biacore 8K; reference 2-5.
Experiment [3] has the same target. The experiment can be described thus: competition ELISA, NKp46-His coated; competitor 1-4-2 at 20 ug/ml.
Experiment [4] has the same target. The experiment can be described thus: competition ELISA, NKp46-His coated; competitor 2-10 at 20 ug/ml.
The target is the same in experiment [5]. The experiment can be described thus: competition ELISA, NKp46-His coated; competitor 2-3 at 20 ug/ml.
The target is the same in experiment [6]. Description: competition ELISA, NKp46-His coated; no competitor (Control).
Experiment [7] has the same target. The experiment can be described thus: competition ELISA, NKp46-His coated; competitor 2-2 at 20 ug/ml.
For experiment [8] the target is unchanged. The experiment can be described thus: competition ELISA, NKp46-His coated; competitor 2-1 at 20 ug/ml.
Experiment [9] has the same target. The experiment can be described thus: competition ELISA, NKp46-His coated; competitor 2-7 at 20 ug/ml.
Experiment [10] shares this target. The experiment can be described thus: competition ELISA, NKp46-His coated; competitor 1-10 at 20 ug/ml.
Experiment [11] shares this target. The experiment can be described thus: competition ELISA, NKp46-His coated; competitor 2-5 at 20 ug/ml.
The target is the same in experiment [12]. The experiment can be described thus: competition ELISA, NKp46-His coated; competitor 1-8 at 20 ug/ml.
For experiment [13] the target is unchanged. Description: SPR, Biacore 8K, antibody captured on Protein A chip, NKp46 as analyte. The source holds these as a separate data set.
Experiment [14] shares this target. The experiment can be described thus: competition ELISA, NKp46-His coated; competitor 1-2 at 20 ug/ml.
Experiment [15] shares this target. The experiment can be described thus: SPR, Biacore 8K; reference 2-3.
The target is the same in experiment [16]. Description: SPR, Biacore 8K; reference 1-2.

Where two headings read alike, the source gives them in different places. Some results are limits rather than exact numbers.

T1 sequence (O76036 22-258 limits assumed): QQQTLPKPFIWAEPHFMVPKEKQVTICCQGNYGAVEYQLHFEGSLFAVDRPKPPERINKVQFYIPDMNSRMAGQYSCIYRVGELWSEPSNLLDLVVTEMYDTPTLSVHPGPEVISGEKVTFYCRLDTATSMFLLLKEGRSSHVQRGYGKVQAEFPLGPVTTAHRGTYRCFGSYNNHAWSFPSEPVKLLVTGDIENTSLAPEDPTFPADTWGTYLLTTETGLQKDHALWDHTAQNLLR

B1: Hu 2-5 (antibody, V domains shown)
VH: QVQLQESGPGLVKPSQTLSLTCTVSGYSITSDDYWNWIRQPPGKGLEWIGYISYEGSNNYNPSLKNRVTISRDTSKNQFSLKLSSVTAADTAVYYCARLGYPAMDAWGQGTLVTVSS
VL: DIQMTQSPSSLSASVGDRVTITCKASQDINSYLSWFQQKPGKAPKSLIYRANRLVDGVPSRFSGSGSGTDYTLTISSLQPEDFATYYCLQYDEFPWTFGGGTKLEIK
notes: Humanized form of 2-5; also called humanized 2-5
For B1, in experiment [1], the Kd worked out at 3.83 nM, the koff turned out to be 7.05e-05 s⁻¹ and the on-rate (kon) was 18400 M⁻¹ s⁻¹. Besides, the “fold change of KD against the unhumanized antibody” value (from here on “fold change of KD”) in [2] was not above 2 fold.

B2: 28E10B12 (2-3) (antibody, IgG4, V domains shown)
VH: QVQLQQPGAELVKPGASVKLSCKASGYTFTSYWMNWVKQRPGQGLEWIGMIHPNSDITNYNEKFKSQATLTVDKSSSTAYMQLSSLTSEDSAVYYCARHGRFDYWGQGTTLTVSS
VL: DIQMTQSPSSLSASLGERVTLTCRASQDIGSSLNWLQQEPDGTIKRLIYATSSLDSGVPKRFSGSRSGSDYSLTISSLESEDFVDYYCLQYASSPFTFGSGTKLEIK
notes: Hybridoma clone; made as mouse/human chimeric IgG4
In the case of B2, the ELISA signal stood at 1.09 in experiment [3]; 0.173 in [4]; 0.105 in experiment [5]; 1.38 in [6]; 0.16 in [7]; 0.649 in experiment [8]. The ELISA signal in [9] was 0.2; in experiment [10], 0.408; in experiment [11] it was 1.43; in experiment [12], 1.43; in experiment [14], 1.24. For the same molecule, the values for the dissociation constant (Kd) in [1] and in [13] were 0.244 nM and 0.24 to 30 nM, respectively. Moreover, the koff in [1] was found to be 0.000136 s⁻¹. Moreover, in experiment [1], the kon turned out to be 555000 M⁻¹ s⁻¹.

B3: u6506gj130-1-2 (1-2) (antibody, IgG4, V domains shown)
VH: EVQLQQSGPELVKPGASVKISCQASGYTFTDYYLNWVKQSHGKSLEWIGDIDPHNGGTSYNQKFKDKATLTVDKSSSTAYMELRSLTSEDSAVYYCARFPIYYSGSSPMDYWGQGTSVTVSS
VL: DIQMTQSPASLSASVGETVTITCRTNENIFSYLAWYQQKQGKSPQLLVYNAKTLAEGVPSRFSGSASGTQFSLKINTLQPEDFGSYYCQHHYGTPYTFGGGTKLEII
notes: Beacon screening clone; made as mouse/human chimeric IgG4 (mouse variable regions, human constant region)
As for B3, the ELISA signal was determined as 0.178 in experiment [3]; 1.24 in experiment [4]; 1.28 in experiment [5]; 1.54 in experiment [6]; 1.23 in experiment [7]; 1.24 in [8]. In addition, the ELISA signal in [9] was 1.15; in experiment [10] it was 1.19; in [11], 1.46; in experiment [12] it was 1.63; in experiment [14], 0.1. Moreover, the Kd in [1] was 4.29 nM. Besides, in experiment [1], the koff came to 0.00012 s⁻¹. Also, in experiment [1], the kon is 27900 M⁻¹ s⁻¹.

B4: Hu 2-3 (antibody, V domains shown)
VH: QVQLVQSGAEVKKPGASVKVSCKASGYTFTSYWMNWVRQAPGQGLEWIGMIHPNSDITNYNEKFKSRVTMTVDTSTSTVYMELSSLRSEDTAVYYCARHGRFDYWGQGTTVTVSS
VL: DIQMTQSPSSLSASVGDRVTITCRASQDIGSSLNWLQQKPGKAPKRLIYATSSLDAGVPKRFSGSGSGTDYTLTISSLQPEDFATYYCLQYASSPFTFGGGTKLEIK
notes: Humanized form of 2-3; also called humanized 2-3
As for B4, in [15], the “fold change of KD” value is not above 2 fold. For the same molecule, in experiment [1], the Kd came out at 0.421 nM, the koff came out at 0.000138 s⁻¹ and the kon came to 328000 M⁻¹ s⁻¹. Further, the Kd in experiment [13] was 0.42 to 8.7 nM.

B5: Hu 1-2 (antibody, V domains shown)
VH: QVQLVQSGAEVKKPGASVKVSCKASGYTFTDYYLNWVRQAPGQGLEWIGDIDPHNAGTSYNQKFKDRVTMTVDTSTSTVYMELSSLRSEDTAVYYCARFPIYYSGSSPMDYWGQGTLVTVSS
VL: DIQMTQSPSSLSASVGDRVTITCRTNENIFSYLAWYQQKPGKAPKLLIYNAKTLAEGVPSRFSGSGSGTDFTLTISSLQPEDFATYYCQHHYGTPYTFGGGTKLEIK
notes: Humanized form of 1-2; also called humanized 1-2
For the molecule B5, in experiment [1], the Kd amounted to 8.66 nM, the koff was 0.000118 s⁻¹ and the kon came out at 13700 M⁻¹ s⁻¹. For the same molecule, the “fold change of KD” value in [16] is not above 2 fold. Besides, in experiment [13], the Kd was 0.42 to 8.7 nM.
